Experimental findings from paper PMC6757032 are described below.

For the assay, the target named is pre-formed trans-SNARE complexes between V- and T-liposomes (syntaxin-1A S186C-TMR, cysteine-free SNAP-25a, synaptobrevin-2 L26C-Alexa-488) (rat), P32851.
Sequence of pre-formed trans-SNARE complexes between V- and T-liposomes (syntaxin-1A S186C-TMR, cysteine-free SNAP-25a, synaptobrevin-2 L26C-Alexa-488) (rat), P32851 (P32851 whole entry C145A/S186C/C271A/C272A, chain 1 of 3): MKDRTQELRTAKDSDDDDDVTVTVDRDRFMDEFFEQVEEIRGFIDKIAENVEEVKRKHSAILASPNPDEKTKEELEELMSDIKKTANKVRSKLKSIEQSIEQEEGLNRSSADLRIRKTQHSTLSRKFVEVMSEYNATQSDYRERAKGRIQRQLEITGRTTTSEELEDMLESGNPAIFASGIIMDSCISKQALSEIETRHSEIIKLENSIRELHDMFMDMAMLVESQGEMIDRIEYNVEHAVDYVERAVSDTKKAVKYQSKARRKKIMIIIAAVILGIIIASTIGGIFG
Sequence of pre-formed trans-SNARE complexes between V- and T-liposomes (syntaxin-1A S186C-TMR, cysteine-free SNAP-25a, synaptobrevin-2 L26C-Alexa-488) (rat), P32851 (P60881 other isoform, or with tags, fused parts or gaps, stated change not applied, chain 2 of 3, further chain): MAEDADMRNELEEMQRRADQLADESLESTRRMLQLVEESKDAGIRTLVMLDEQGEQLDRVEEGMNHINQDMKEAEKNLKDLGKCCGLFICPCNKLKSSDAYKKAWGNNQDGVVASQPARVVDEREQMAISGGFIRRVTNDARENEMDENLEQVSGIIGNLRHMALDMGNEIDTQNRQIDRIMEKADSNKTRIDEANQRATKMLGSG
Sequence of pre-formed trans-SNARE complexes between V- and T-liposomes (syntaxin-1A S186C-TMR, cysteine-free SNAP-25a, synaptobrevin-2 L26C-Alexa-488) (rat), P32851 (P63045 other isoform, or with tags, fused parts or gaps, stated change not applied, chain 3 of 3, further chain): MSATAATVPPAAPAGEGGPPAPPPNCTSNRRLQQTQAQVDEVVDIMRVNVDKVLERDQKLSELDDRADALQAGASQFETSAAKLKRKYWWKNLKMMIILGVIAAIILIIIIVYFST

B1: full-length Bos Taurus αSNAP, P81125 1-295 (natural protein)
chain: MDNSGKEAEAMALLAEAERKVKNSQSFFSGLFGGSSKIEEACEIYARAANMFKMAKNWSAAGSAFCQAAHVHLQLQSKHDAATCFVDAGNAFKKADPQEAINCLMRAIEIYTDMGRFTIAAKHHISIAEIYETELVDIEKAIAHYEQSADYYKGEESNSSANKCLLKVAGYAAQLEQYQKAIDIYEQVGTNAMDSPLLKYSAKDYFFKAALCHFCIDMLNAKLAVQKYEELFPAFSDSRECKRIKKLLEAHEEQNVDSYTEAVKEYDSISRLDQWLTTMLLRIKKTIQGDEEDLR
modifications: here or on the partner: tetramethylrhodamine on the cysteine at residue 186 | Alexa-488 on the cysteine at residue 26
Molecule B1 yielded an inhibition of lipid mixing (DiD de-quenching at 37 °C) mediated by trans-SNARE complexes pre-formed between V- and T-liposomes; titration with WT αSNAP of 170 nM.
